Results: patent US20120178701A1
Bridge positions count the residues as written; N and C are the ends. Square brackets hold non-standard residues; d marks the D form. Primed or numbered codes have the meaning given here. * marks the point of attachment. Dap(betaPro) = diaminopropionic acid with a beta-prolyl group on the side-chain amine; Cyclopentylacetyl′ = not defined here; Cyclohexylacetyl = O=C(CC1CCCCC1)*; Orn = NCCC[C@H](N)C(=O)O; Dab = NCC[C@H](N)C(=O)O; Sar = CNCC(=O)O

B1: Ac-Arg-cyclo(Asp-Dab(Acetyl)-D-Phe-Arg-Trp-Lys)-NH2 (peptide)
peptide: RDXFRWK
HELM: PEPTIDE1{[ac].R.D.[Dab].[dF].R.W.K.[am]}|PEPTIDE2{[ac]}$PEPTIDE1,PEPTIDE2,4:R3-1:R2|PEPTIDE1,PEPTIDE1,3:R3-8:R3$$$V2.0
SMILES: CC(=O)NCC[C@@H]1NC(=O)[C@@H](NC(=O)[C@H](CCCNC(=N)N)NC(C)=O)CC(=O)NCCCC[C@@H](C(N)=O)NC(=O)[C@H](Cc2c[nH]c3ccccc23)NC(=O)[C@H](CCCNC(=N)N)NC(=O)[C@@H](Cc2ccccc2)NC1=O
B2: Ac-Arg-cyclo(Asp-Dab-D-Phe-Arg-Trp-Lys)-NH-cyclopropyl (peptide)
peptide: RDXFRWK
HELM: PEPTIDE1{[ac].R.D.[Dab].[dF].R.W.K.[C1CC1N[*:1]]}$PEPTIDE1,PEPTIDE1,3:R3-8:R3$$$V2.0
SMILES: CC(=O)N[C@@H](CCCNC(=N)N)C(=O)N[C@H]1CC(=O)NCCCC[C@@H](C(=O)NC2CC2)NC(=O)[C@H](Cc2c[nH]c3ccccc23)NC(=O)[C@H](CCCNC(=N)N)NC(=O)[C@@H](Cc2ccccc2)NC(=O)[C@H](CCN)NC1=O
B3: Ac-Arg-cyclo(Asp-Dap-D-Phe-Arg-Trp-Lys)-NH2 (peptide)
peptide: RDXFRWK
HELM: PEPTIDE1{[ac].R.D.[NC[C@H](N[*:1])C(=O)[*:2]].[dF].R.W.K.[am]}$PEPTIDE1,PEPTIDE1,3:R3-8:R3$$$V2.0
SMILES: CC(=O)N[C@@H](CCCNC(=N)N)C(=O)N[C@H]1CC(=O)NCCCC[C@@H](C(N)=O)NC(=O)[C@H](Cc2c[nH]c3ccccc23)NC(=O)[C@H](CCCNC(=N)N)NC(=O)[C@@H](Cc2ccccc2)NC(=O)[C@H](CN)NC1=O
B4: Ac-Arg-cyclo(Dab-Dab-D-Phe-Arg-Trp-hGlu)-NH2 (peptide)
peptide: RXXFRWX
modifications: N-acetyl; X2 = Dab; X3 = Dab; D-Phe 4; X7 = hGlu; side-chain lactam Dab2-hGlu7; C-terminal amide
B5: Ac-Arg-cyclo(hGlu-Dab-D-Phe-Arg-Trp-Dab)-NH2 (peptide)
peptide: RXXFRWX
modifications: N-acetyl; X2 = hGlu; X3 = Dab; D-Phe 4; X7 = Dab; side-chain lactam hGlu2-Dab7; C-terminal amide
B6: Ac-Arg-cyclo(Dab-Dab-D-Phe-Arg-Trp-hGlu)-OH (peptide)
peptide: RXXFRWX
modifications: N-acetyl; X2 = Dab; X3 = Dab; D-Phe 4; X7 = hGlu; side-chain lactam Dab2-hGlu7; C-terminal free acid (-OH)
B7: Ac-Arg-cyclo(hGlu-Dab-D-Phe-Arg-Trp-Dab)-OH (peptide)
peptide: RXXFRWX
modifications: N-acetyl; X2 = hGlu; X3 = Dab; D-Phe 4; X7 = Dab; side-chain lactam hGlu2-Dab7; C-terminal free acid (-OH)

Target: T1, human recombinant melanocortin-4 receptor (human), P32245
T1 sequence (P32245 whole entry): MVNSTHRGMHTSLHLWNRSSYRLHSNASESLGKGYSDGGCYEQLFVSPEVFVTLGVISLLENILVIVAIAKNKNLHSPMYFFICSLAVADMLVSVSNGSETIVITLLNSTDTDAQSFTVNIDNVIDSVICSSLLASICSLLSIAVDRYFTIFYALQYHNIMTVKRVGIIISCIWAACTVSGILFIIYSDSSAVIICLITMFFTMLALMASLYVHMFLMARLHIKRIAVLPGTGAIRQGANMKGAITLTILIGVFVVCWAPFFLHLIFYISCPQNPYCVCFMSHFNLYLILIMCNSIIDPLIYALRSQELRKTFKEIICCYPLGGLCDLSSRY
Assay: competitive inhibition of [I125]-NDP-α-MSH, hMC4-R HEK-293 membranes
Conditions: remark: other sources report otherwise

Row | Binder | Ki [nM]
1 | Cyclohexylacetyl-RD[Dab][dF]RWK-NH2 (lactam 2-7) [Cyclohexylacetyl-Arg-cyclo(Asp-Dab-D-Phe-Arg-Trp-Lys)-NH2] | 1
2 | Cyclohexanoyl-RD[Dab][dF]RWK-NH2 (lactam 2-7) [Cyclohexanoyl-Arg-cyclo(Asp-Dab-D-Phe-Arg-Trp-Lys)-NH2] | 0.4
3 | Ac-RD[Orn](Ac)[dF]RWK-NH2 (lactam 2-7) [Ac-Arg-cyclo(Asp-Orn(Acetyl)-D-Phe-Arg-Trp-Lys)-NH2] | 573
4 | B1 | 33
5 | {Cyclopentylacetyl′}-RD[Dab][dF]RWK-NH2 (lactam 2-7) [Cyclopentylacetyl-Arg-cyclo(Asp-Dab-D-Phe-Arg-Trp-Lys)-NH2] | 0.8
6 | Ac-RD[Sar][dF]RWK-NH2 (lactam 2-7) [Ac-Arg-cyclo(Asp-Sar-D-Phe-Arg-Trp-Lys)-NH2] | 15
7 | B2 | 3
8 | Phenylacetyl-RD[Dab][dF]RWK-NH2 (lactam 2-7) [Phenylacetyl-Arg-cyclo(Asp-Dab-D-Phe-Arg-Trp-Lys)-NH2] | 2

Target: T1, human recombinant melanocortin-4 …
Assay: competitive inhibition of Eu-NDP-α-MSH (TRF), hMC4-R HEK-293 membranes
Conditions: remark: other sources report otherwise

Row | Binder | Ki [nM]
9 | Ac-RD[Orn][dF]RWK-NH2 (lactam 2-7) [Ac-Arg-cyclo(Asp-Orn-D-Phe-Arg-Trp-Lys)-NH2] | 7
10 | Ac-RD[Dab](Gly)[dF]RWK-NH2 (lactam 2-7) [Ac-Arg-cyclo(Asp-Dab(Glycly)-D-Phe-Arg-Trp-Lys)-NH2] | 110
11 | B1 | 88
12 | Ac-RD[Dap(betaPro)][dF]RWK-NH2 (lactam 2-7) [Ac-Arg-cyclo(Asp-Dap(betaPro)-D-Ph-Arg-Trp-Lys)-NH2] | 145
13 | B3 | 80

Target: human recombinant melanocortin-4 receptor (human) (UniProt P32245)
Sequence (P32245 whole entry): as above
Assay: as above
Conditions: not given

Row | Binder | Ki [nM]
14 | B4 | 4
15 | B5 | 2

Target: human recombinant melanocortin-4 receptor (human) (UniProt P32245)
Assay: competitive inhibition of [I125]-NDP-α-MSH, hMC4-R HEK-293 membranes
Conditions: not given

Row | Binder | Ki [nM]
16 | B6 | 35
17 | B7 | 45

Target: human recombinant melanocortin-4 receptor (human) (UniProt P32245)
Assay: cell-based or functional assay
Conditions: not given

Row | Binder | EC50 (cAMP) [nM] | intrinsic activity (cAMP; NDP-α-MSH = 100%) [%]
18 | B4 | 0.065 | 96
19 | B5 | 0.06 | 98
